Where two headings read alike, the source gives them in different places.
Experiments:
[1] = target: T1, Hfq:R16A (Escherichia coli, UniProt P0A6X3 1-102, R16A); test: fluorescence anisotropy
[2] = target: Hfq:S38W (Escherichia coli, UniProt P0A6X3 1-102, S38W); test: Trp fluorescence quenching
[3] = target: T2, Hfq WT (Escherichia coli, UniProt P0A6X3 1-102); test: fluorescence anisotropy
[4] = target: T2, Hfq WT; test: fluorescence anisotropy; remark: listed apart in the source
[5] = target: T3, Hfq TM (Escherichia coli, UniProt P0A6X3 1-102, R16A;R17A;R19D); test: fluorescence anisotropy
[6] = target: Hfq:R16A,S65C-Cy3 (Escherichia coli, UniProt P0A6X3 1-102, R16A;S65C); test: stopped-flow FRET
[7] = target: T1, Hfq:R16A; test: fluorescence anisotropy; remark: listed apart in the source
[8] = target: T3, Hfq TM; test: fluorescence anisotropy; remark: listed apart in the source

| Binder | Kd [1] | binding result [2] | Kd [4] | other results |
| --- | --- | --- | --- | --- |
| GUGGUCAGUCGAGUGGUUUUUU (ssRNA) [Oligo CU] | 0.07 nM | binds |  | Kd [3]: 0.1 nM |
| CGAAUUUUUUAAGUGC (ssRNA) [D16 unlabeled] |  | binds |  |  |
| GUGGUCAGUCGAGUGGAAAAAAAAAAAAAAAAAA (ssRNA) [Oligo CA] |  | binds |  |  |
| AAAAAAAAAAAAAAAAAA (ssRNA) [A18] | 2.3 nM |  | 13.2 nM | Kd [5]: 16.8 nM |
| CGAAUUUUUUAAGUGC (ssRNA) [D16] |  |  | 22.5 nM | binding result [6]: binds; Kd [7]: 39.8 nM; Kd [8]: 17.5 nM |
